According to patent US20230312698A1 (NANJING GENSCRIPT BIOTECH, published 2023):
Where two headings read alike, the source gives them in different places.

Legend:
[1] = target: T1, membrane-anchored human Ang2 protein expressed on CHO-K1 cells (human, UniProt O15123 19-496); experiment: FACS
T1 chain: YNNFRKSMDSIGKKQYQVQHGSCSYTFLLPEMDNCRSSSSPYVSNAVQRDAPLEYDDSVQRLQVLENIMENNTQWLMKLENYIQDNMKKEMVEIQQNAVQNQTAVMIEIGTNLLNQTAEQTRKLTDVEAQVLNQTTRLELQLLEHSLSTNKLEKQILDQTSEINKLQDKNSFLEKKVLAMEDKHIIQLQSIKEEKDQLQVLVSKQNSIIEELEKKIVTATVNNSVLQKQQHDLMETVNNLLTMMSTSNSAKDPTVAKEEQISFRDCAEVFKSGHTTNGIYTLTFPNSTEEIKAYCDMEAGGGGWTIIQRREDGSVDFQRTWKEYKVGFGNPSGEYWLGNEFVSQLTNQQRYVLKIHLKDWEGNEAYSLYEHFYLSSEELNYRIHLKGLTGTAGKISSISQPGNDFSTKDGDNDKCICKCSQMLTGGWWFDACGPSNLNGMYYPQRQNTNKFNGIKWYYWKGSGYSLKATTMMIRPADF

[2] = target: T2, membrane-anchored cyno Ang2 protein expressed on CHO-K1 cells (cyno, UniProt A0A2K5VNX6 19-496); experiment: FACS
T2 chain: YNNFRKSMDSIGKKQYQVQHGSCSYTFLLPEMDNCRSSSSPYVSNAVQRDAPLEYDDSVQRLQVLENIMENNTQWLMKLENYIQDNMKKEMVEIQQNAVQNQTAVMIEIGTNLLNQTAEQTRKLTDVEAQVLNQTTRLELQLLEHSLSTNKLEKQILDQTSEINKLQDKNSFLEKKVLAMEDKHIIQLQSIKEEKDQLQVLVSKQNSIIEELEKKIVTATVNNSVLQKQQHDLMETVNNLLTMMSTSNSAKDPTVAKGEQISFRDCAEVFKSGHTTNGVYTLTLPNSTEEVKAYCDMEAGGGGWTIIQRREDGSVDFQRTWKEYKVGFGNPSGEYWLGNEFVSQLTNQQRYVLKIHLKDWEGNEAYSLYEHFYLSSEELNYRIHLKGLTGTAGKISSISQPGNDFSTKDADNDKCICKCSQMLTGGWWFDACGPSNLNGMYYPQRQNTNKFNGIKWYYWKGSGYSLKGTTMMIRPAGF

[3] = target: T3, human Ang2 protein (R&D Systems, 623-AN-01M/CF; 623-AN/CF) (human, UniProt O15123 19-496); experiment: ELISA
T3 chain: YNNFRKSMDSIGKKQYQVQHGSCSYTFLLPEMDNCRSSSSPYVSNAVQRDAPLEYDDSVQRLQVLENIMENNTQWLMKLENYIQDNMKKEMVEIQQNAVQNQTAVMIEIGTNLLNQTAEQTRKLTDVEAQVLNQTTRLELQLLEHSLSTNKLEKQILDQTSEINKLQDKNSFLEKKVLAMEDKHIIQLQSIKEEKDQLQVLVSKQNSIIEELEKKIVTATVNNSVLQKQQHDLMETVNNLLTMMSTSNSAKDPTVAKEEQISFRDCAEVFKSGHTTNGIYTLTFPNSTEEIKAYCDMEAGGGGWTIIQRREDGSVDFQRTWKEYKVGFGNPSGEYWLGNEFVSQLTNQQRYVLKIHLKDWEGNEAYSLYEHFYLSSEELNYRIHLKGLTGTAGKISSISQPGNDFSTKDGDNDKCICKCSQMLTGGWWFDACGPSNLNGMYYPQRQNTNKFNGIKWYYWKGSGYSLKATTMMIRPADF

[4] = target: T4, human Ang2 protein (R&D Systems, 623-AN-01M/CF; 623-AN/CF) (human, UniProt O15123 19-496); experiment: indirect ELISA, human Ang2 coated at 0.5 µg/ml
T4 construct: Bought recombinant protein; also called Ang2 proteins; angiopoietin-2
T4 sequence (looked up): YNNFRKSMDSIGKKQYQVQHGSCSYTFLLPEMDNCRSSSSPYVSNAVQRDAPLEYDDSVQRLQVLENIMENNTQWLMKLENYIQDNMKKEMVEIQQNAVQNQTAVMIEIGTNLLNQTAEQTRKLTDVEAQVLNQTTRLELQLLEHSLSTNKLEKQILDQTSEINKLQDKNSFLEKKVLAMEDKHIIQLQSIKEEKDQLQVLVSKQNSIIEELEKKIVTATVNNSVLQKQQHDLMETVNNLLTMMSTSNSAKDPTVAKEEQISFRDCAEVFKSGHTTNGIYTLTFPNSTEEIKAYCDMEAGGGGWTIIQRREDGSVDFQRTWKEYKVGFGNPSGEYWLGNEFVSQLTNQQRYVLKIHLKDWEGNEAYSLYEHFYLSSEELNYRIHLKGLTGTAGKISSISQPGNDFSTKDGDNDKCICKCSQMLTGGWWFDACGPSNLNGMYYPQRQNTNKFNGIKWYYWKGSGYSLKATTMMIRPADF
Experimental: (§1) The antibodies were tested for their binding activities to Ang2 in an indirect ELISA. Briefly, 100 μl of 0.5 μg/ml human or mouse Ang2 proteins (R&D Systems; 623-AN-01M/CF for human Ang2, 7186-AN-025/CF for mouse Ang2) were pre-coated onto ELISA plates overnight at 4° C. On the next day, the plates were incubated with […] diluted primary antibodies, with initial concentration at 1 μg/ml. The plates were added with HRP-conjugated goat anti-mouse IgG (H+L) and then TMB for chromogenic reaction. The antibody-antigen binding curves were generated with optical density readings at 450 nm. Raw data was plotted using GraphPad Prism v6.02 software with four parameters, and best-fit values program was used to analyze the EC₅₀.

[5] = target: T5, mouse Ang2 protein (R&D Systems, 7186-AN-025/CF) (mouse, UniProt O35608 19-496, limits assumed); experiment: indirect ELISA, mouse Ang2 coated at 0.5 µg/ml
T5 construct: Bought recombinant protein
T5 sequence (looked up): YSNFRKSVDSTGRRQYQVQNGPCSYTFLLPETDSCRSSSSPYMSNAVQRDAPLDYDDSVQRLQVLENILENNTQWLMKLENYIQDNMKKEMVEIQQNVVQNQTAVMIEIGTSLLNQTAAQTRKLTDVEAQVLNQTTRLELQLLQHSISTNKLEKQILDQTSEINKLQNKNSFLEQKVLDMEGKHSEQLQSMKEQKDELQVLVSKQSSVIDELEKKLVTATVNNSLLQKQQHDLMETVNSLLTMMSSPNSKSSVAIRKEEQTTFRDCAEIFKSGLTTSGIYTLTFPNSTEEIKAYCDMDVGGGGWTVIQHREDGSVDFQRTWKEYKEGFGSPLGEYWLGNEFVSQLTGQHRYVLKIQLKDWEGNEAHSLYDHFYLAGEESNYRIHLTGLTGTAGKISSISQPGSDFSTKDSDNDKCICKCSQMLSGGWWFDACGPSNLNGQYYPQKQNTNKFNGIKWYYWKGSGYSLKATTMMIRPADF
Experimental: as §1

[6] = target: T3, human Ang2 protein (R&D Systems, …); experiment: ELISA
[7] = target: T4, human Ang2 protein (R&D Systems, …); experiment: indirect ELISA, human Ang2 coated at 0.5 µg/ml, anti-human IgG-HRP
Experimental: The humanized antibodies were tested for their binding activities to human Ang2 in an indirect ELISA. Briefly, 100 μl of 0.5 μg/ml human Ang2 proteins (R&D Systems; 623-AN-01M/CF) were pre-coated onto ELISA plates overnight at 4° C. On the next day, the plates were incubated with 100 μl 3× serially diluted primary antibodies, with initial concentration at 1 μg/ml. The plates were added with HRP-conjugated goat anti-human IgG antibody (Jackson, cat #109-605-098) and then TMB for chromogenic reaction. The antibody-antigen binding curves were generated with optical density readings at 450 nm. Antibody ABA and IgG1 were used as a positive and negative control respectively. Raw data was plotted using GraphPad Prism v6.02 software with four parameters, and best-fit values program was used to analyze the EC₅₀.

Binder	EC50 [1]	EC50 [2]	EC50 [3]	binding result [4]	binding result [5]	EC50 [6]	binding result [7]
46H3H3 (antibody, V domains shown, Hybridoma antibody purified with Protein-A beads) VH: EVKLVESGGGLVQPGGSRKLSCAASGFTFSDYGMVWVRQAPGKGLEWVAYIGSGRSTIYYADTVKGRFTISRDNPKNTLFLQMSSLRSEDTAMYYCAREDNGYSYAMDYWGQGTSVTVSS VL: DIQMTQSPASQSASLGESVTITCLASQTIGTWLAWYQQKPGKSPQLLIYAATSLADGVPSRFSGSGSGTKFSFKISSLQAEDFVSYYCQQLYSTPLTFGAGTKLELK	0.203 nM	0.342 nM	6.34 ng/mL	binds	no binding (tested: initial concentration at 1 µg/ml)	–	–
53E8B2-VH3-VL2 (antibody, V domains shown) VH: EVQLVESGGGLVQPGGSLRLSCAASGFTFSDYAMAWVRQAPGKGLEWVATIIYDGSSTYYRDSVKGRFTISRDNAKNSLYLQMNSLRAEDTAVYYCARHGRVFGFGYFDYWGQGTLVTVSS VL: DIQMTQSPSSVSASVGDRVTITCQASQDIGDWVAWYQQKPGRAPKLLIYGADRLADGVPSRFSGSGSGTDFTLTISSLQPEDFATYYCLQDYSPPFTFGQGTKLEIK	–	–	–	–	–	4.35 ng/mL	–
85E10B9-VH1-VL6 (antibody, V domains shown) VH: QVQLVQSGAEVKKPGASVKVSCKASGYTFTNHYLHWVRQAPGQGLEWMGWIGPTNGDTSYAQKFKDRVTMTRDTSISTAYMELSRLRSDDTAVYYCAREGYFTNYFDYWGQGTLVTVSS VL: DIQMTQSPSSLSASVGDRVTITCKASQNVIKYLAWYQQKPGKAPKRLIYNASSLQTGVPSRFSGSGSGTEFTLTISSLQPDDFATYYCLQYNSWWTFGQGTKVEIK	–	–	–	–	–	7.29 ng/mL	–
85E10B9-VH3-VL2 (antibody, V domains shown) VH: QVQLVQSGAEVKKPGASVKVSCKASGYTFTNHYLHWVRQAPGQRLEWMGWIGPTNGDTSYAQKFKDRVTITRDTSASTAYMELSSLRSEDTAVYYCAREGYFTNYFDYWGQGTLVTVSS VL: DIQLTQSPSFLSASVGDRVTITCKASQNVIKYLAWYQQKPGKAPKLLIYNASSLQTGVPSRFSGSGSGTEFTLTISSLQPEDFATYYCLQYNSWWTFGGGTKVEIK	–	–	–	–	–	4.52 ng/mL	–
85E10B9-VH3-VL1 (antibody, V domains shown, Humanized antibody expressed in CHO-3E7; also called humanized 85E10B9 lead) VH: QVQLVQSGAEVKKPGASVKVSCKASGYTFTNHYLHWVRQAPGQRLEWMGWIGPTNGDTSYAQKFKDRVTITRDTSASTAYMELSSLRSEDTAVYYCAREGYFTNYFDYWGQGTLVTVSS VL: DIQMTQSPSSLSASVGDRVTITCKASQNVIKYLAWYQQKPGKVPKLLIYNASSLQTGVPSRFSGSGSGTDFTLTISSLQPEDVATYYCLQYNSWWTFGGGTKVEIK	–	–	–	–	–	0.718 ng/mL	binds
5A7B9 (antibody, V domains shown, Hybridoma antibody purified with Protein-A beads) VH: QIQLVQSGPELKKPGETVKISCKASGYTFTNYGVNWVKQAPGKGLKWMGWINSYSGVPTYADDFKGRFAFSLETSASTAYLQINNLKNEDTATYFCARGENNYYGGSYDWGQGTTLTVSS VL: SIVMTQTPKFLLVSAGDRVTITCKASQSVSNDVAWYQQKPGQSPKLLIYYASNRYTGVPDRFTGSGYGTDFTFTISTVQAEDLAVYFCQQDYSSPLTFGAGTKLELK	0.369 nM	0.662 nM	7.47 ng/mL	binds	no binding (tested: initial concentration at 1 µg/ml)	–	–
4D8F2 (antibody, V domains shown, Hybridoma antibody purified with Protein-A beads) VH: DVQLQESGPGLVKPSQSLSLTCTVTGYSITSDYAWNWIRQFPGNKLEWMGYISYSGSTSYNPSLKSRISITRDTSKNQFFLQLNSVTTEDTATYYCARGVRGDMDYWGQGTSVTVSS VL: SIVMTQTPKFLLVSAGDRVTITCKASQSVSNDVAWYQQKPGQSPKLLIYYASNRYTGVPDRFTGSGYGTDFTFTISTVQAEDLAVYFCQQDYSSPFTFGSGTKLEIK	1.69 nM	2.37 nM	7.17 ng/mL	binds	no binding (tested: initial concentration at 1 µg/ml)	–	–
